Molecular target: Ara h 1 (peanut)
Experiment: SEC; purified Ara h 1; conditions not given

stoichiometry N: 3
Substance: Ara h 1 (natural protein)

Reference: PMC4650709
